Assay results taken from patent publication US20240255509A1, “COMPOSITIONS AND METHODS RELATED TO K180 DIMETHYLATED H1.0 PROTEIN” (Aelan Cell Technologies, Inc., priority 2016, published 2024).

Columns and labels:
Experiment in all cases: In vitro methylation with GLP, products identified by LC-MS
Format in all cases: biochemical
[1] = target: T1, K180 dimethylated H1.0 peptide (SEQ ID NO:3) (Homo sapiens, UniProt P07305); settings: K180 dimethylated peptide as substrate
T1 construct: purchased ThermoFisher Scientific (peptide); Cayman Chemical (GLP) 10755 (GLP)
Protocol: (§1) In order to identify the precise sites of methylation by G9A and GLP methyltransferases on histone H1.0, in vitro methylation assays were performed and subsequently analyzed by Liquid Chromatography and High-resolution Mass Spectrometry (LC-MS) analysis. Methylation reactions were set up using either G9A methyltransferase (NEB, M0235S, Lot #0031201) or GLP methyltransferase (Cayman Chemical, 10755). The methyl donor in each reaction was unlabeled S-Adenosyl-L-Methionine (NEB, B9003S). […]
(§2) For the Liquid Chromatography and High-resolution Mass Spectrometry (LC-MS) analysis, samples were prepared as described above and about 1 μg o the product was injected onto a Thermo Scientific Easy nLC system configured with a 10 cm×100 um trap column and a 25 cm×100 um ID resolving column. […] This ensured optimal full-scan data for quantification. […]
(§3) Protein identification was performed using Thermo Scientific Proteome Discoverer version 1.4 (including Sequest and Percolator algorithms) using RefSeqHuman sequence database. […] Protein quantification was performed using Pinpoint version 1.4 software. The Pinpoint quantification workflow included importing the Proteome Discoverer .msf files as spectral libraries. Identified peptides were subsequently quantified in MS .raw files using the Pinpoint peak finding, chromatographic alignment and area calculation algorithms. […]

[2] = target: T2, unmodified H1.0 peptide ([…] (SEQ ID NO:42)) (Homo sapiens, UniProt P07305); settings: 10 U enzyme, 3.2 mM S-Adenosyl-L-Methionine, 37° C. 1 hour, spectral counts
T2 construct: purchased ThermoFisher Scientific (peptide); NEB (G9A) M0235S (G9A)
Protocol: as §1, §2, §3

[3] = target: T3, recombinant human H1.0 protein (Homo sapiens, UniProt P07305); settings: 1 μg full-length protein
T3 construct: full-length recombinant human H1.0 (NEB, M2501S); purchased NEB M2501S (H1.0); M0235S (G9A)
Protocol: as §1, §2, §3

B1: GLP: recombinant G9A-like protein (GLP) methyltransferase (Cayman Chemical, 10755) (protein, UniProt Q9H9B1 2-1298, looked up)
Histone-lysine …: AAADAEAVPARGEPQQDCCVKTELLGEETPMAADEGSAEKQAGEAHMAADGETNGSCENSDASSHANAAKHTQDSARVNPQDGTNTLTRIAENGVSERDSEAAKQNHVTADDFVQTSVIGSNGYILNKPALQAQPLRTTSTLASSLPGHAAKTLPGGAGKGRTPSAFPQTPAAPPATLGEGSADTEDRKLPAPGADVKVHRARKTMPKSVVGLHAASKDPREVREARDHKEPKEEINKNISDFGRQQLLPPFPSLHQSLPQNQCYMATTKSQTACLPFVLAAAVSRKKKRRMGTYSLVPKKKTKVLKQRTVIEMFKSITHSTVGSKGEKDLGASSLHVNGESLEMDSDEDDSEELEEDDGHGAEQAAAFPTEDSRTSKESMSEADRAQKMDGESEEEQESVDTGEEEEGGDESDLSSESSIKKKFLKRKGKTDSPWIKPARKRRRRSRKKPSGALGSESYKSSAGSAEQTAPGDSTGYMEVSLDSLDLRVKGILSSQAEGLANGPDVLETDGLQEVPLCSCRMETPKSREITTLANNQCMATESVDHELGRCTNSVVKYELMRPSNKAPLLVLCEDHRGRMVKHQCCPGCGYFCTAGNFMECQPESSISHRFHKDCASRVNNASYCPHCGEESSKAKEVTIAKADTTSTVTPVPGQEKGSALEGRADTTTGSAAGPPLSEDDKLQGAASHVPEGFDPTGPAGLGRPTPGLSQGPGKETLESALIALDSEKPKKLRFHPKQLYFSARQGELQKVLLMLVDGIDPNFKMEHQNKRSPLHAAAEAGHVDICHMLVQAGANIDTCSEDQRTPLMEAAENNHLEAVKYLIKAGALVDPKDAEGSTCLHLAAKKGHYEVVQYLLSNGQMDVNCQDDGGWTPMIWATEYKHVDLVKLLLSKGSDINIRDNEENICLHWAAFSGCVDIAEILLAAKCDLHAVNIHGDSPLHIAARENRYDCVVLFLSRDSDVTLKNKEGETPLQCASLNSQVWSALQMSKALQDSAPDRPSPVERIVSRDIARGYERIPIPCVNAVDSEPCPSNYKYVSQNCVTSPMNIDRNITHLQYCVCIDDCSSSNCMCGQLSMRCWYDKDGRLLPEFNMAEPPLIFECNHACSCWRNCRNRVVQNGLRARLQLYRTRDMGWGVRSLQDIPPGTFVCEYVGELISDSEADVREEDSYLFDLDNKDGEVYCIDARFYGNVSRFINHHCEPNLVPVRVFMAHQDLRFPRIAFFSTRLIEAGEQLGFDYGERFWDIKGKLFSCRCGSPKCRHSSAALAQRQASAAQEAQEDGLPDTSSAAAADPL
peptides further methylated (H1.0K180 and H1.0K174), % of peptides [1]: 1.02% | peptides dimethylated at H1.0K180, % of all peptides [2]: 96.6% | sites of methylation on full-length H1.0 [3]: methylates a large number of lysine residues on the C-terminal tail of H1.0, lacking the specificity of G9A
